Experimental data: patent publication US20230250154A1 (CYTONICS, published 2023)

B1: Variant A2M, bait region SEQ ID NO 142 (other)
chain: SVSGKPQYMVLVPSLLHTETTEKGCVLLSYLNETVTVSASLESVRGNRSLFTDLEAENDVLHCVAFAVPKSSSNEEVMFLTVQVKGPTQEFKKRTTVMVKNEDSLVFVQTDKSIYKPGQTVKFRVVSMDENFHPLNELIPLVYIQDPKGNRIAQWQSFQLEGGLKQFSFPLSSEPFQGSYKVVVQKKSGGRTEHPFTVEEFVLPKFEVQVTVPKIITILEEEMNVSVCGLYTYGKPVPGHVTVSICRKYSDASDCHGEDSQAFCEKFSGQLNSHGCFYQQVKTKVFQLKRKEYEMKLHTEAQIQEEGTVVELTGRQSSEITRTITKLSFVKVDSHFRQGIPFFGQVRLVDGKGVPIPNKVIFIRGNEANYYSNATTDEHGLVQFSINTTNVMGTSLTVRVNYKDRSPCYGYQWVSEEHEEAHHTAYLVFSPSKSFVHLEPMSHELPCGHTQTVQAHYILNGGTLLGLKKLSFYYLIMAKGGIVRTGTHGLLVKQEDMKGHFSISIPVKSDIAPVARLLIYAVLPTGDVIGDSAKYDVENCLANKVDLSFSPSQSLPASHAHLRVTAAPQSVCALRAVDQSVLLMKPDAELSASSVYNLLPEKDLTGFPGPLNDQDDEDCINRHNVYINGITYTPVSSTNEKDMYSFLEDMGLKAFTNSKIRKPKMCPQLEQYEMHGPSELEGRGSIPENFFGVEGEGEGEGKEEEGLGSVEEPHTKLRKYFPETWIWDLVVVNSAGVAEVGVTVPDTITEWKAGAFCLSEDAGLGISSTASLRAFQPFFVELTMPYSVIRGEAFTLKATVLNYLPKCIRVSVQLEASPAFLAVPVEKEQAPHCICANGRQTVSWAVTPKSLGNVNFTVSAEALESQELCGTEVPSVPEHGRKDTVIKPLLVEPEGLEKETTFNSLLCPSGGEVSEELSLKLPPNVVEESARASVSVLGDILGSAMQNTQNLLQMPYGCGEQNMVLFAPNIYVLDYLNETQQLTPEIKSKAIGYLNTGYQRQLNYKHYDGSYSTFGERYGRNQGNTWLTAFVLKTFAQARAYIFIDEAHITQALIWLSQRQKDNGCFRSSGSLLNNAIKGGVEDEVTLSAYITIALLEIPLTVTHPVVRNALFCLESAWKTAQEGDHGSHVYTKALLAYAFALAGNQDKRKEVLKSLNEEAVKKDNSVHWERPQKPKAPVGHFYEPQAPSAEVEMTSYVLLAYLTAQPAPTSEDLTSATNIVKWITKQQNAQGGFSSTQDTVVALHALSKYGAATFTRTGKAAQVTIQSSGTFSSKFQVDNNNRLLLQQVSLPELPGEYSMKVTGEGCVYLQTSLKYNILPEKEEFPFALGVQTLPQTCDEPKAHTSFQISLSVSYTGSRSASNMAIVDVKMVSGFIPLKPTVKMLERSNHVSRTEVSSNHVLIYLDKVSNQTLSLFFTVLQDVPVRDLKPAIVKVYDYYETDEFAIAEYNAPCSKDLGNADYKDDDDKGASHHHHHH
B2: Variant A2M, bait region SEQ ID NO 138 (other)
chain: SVSGKPQYMVLVPSLLHTETTEKGCVLLSYLNETVTVSASLESVRGNRSLFTDLEAENDVLHCVAFAVPKSSSNEEVMFLTVQVKGPTQEFKKRTTVMVKNEDSLVFVQTDKSIYKPGQTVKFRVVSMDENFHPLNELIPLVYIQDPKGNRIAQWQSFQLEGGLKQFSFPLSSEPFQGSYKVVVQKKSGGRTEHPFTVEEFVLPKFEVQVTVPKIITILEEEMNVSVCGLYTYGKPVPGHVTVSICRKYSDASDCHGEDSQAFCEKFSGQLNSHGCFYQQVKTKVFQLKRKEYEMKLHTEAQIQEEGTVVELTGRQSSEITRTITKLSFVKVDSHFRQGIPFFGQVRLVDGKGVPIPNKVIFIRGNEANYYSNATTDEHGLVQFSINTTNVMGTSLTVRVNYKDRSPCYGYQWVSEEHEEAHHTAYLVFSPSKSFVHLEPMSHELPCGHTQTVQAHYILNGGTLLGLKKLSFYYLIMAKGGIVRTGTHGLLVKQEDMKGHFSISIPVKSDIAPVARLLIYAVLPTGDVIGDSAKYDVENCLANKVDLSFSPSQSLPASHAHLRVTAAPQSVCALRAVDQSVLLMKPDAELSASSVYNLLPEKDLTGFPGPLNDQDDEDCINRHNVYINGITYTPVSSTNEKDMYSFLEDMGLKAFTNSKIRKPKMCPQLEQYEMHGPSEDLVVQIEGEGEGEGIPENFFGVKEEEGLGSVEEPHTKLRKYFPETWIWDLVVVNSAGVAEVGVTVPDTITEWKAGAFCLSEDAGLGISSTASLRAFQPFFVELTMPYSVIRGEAFTLKATVLNYLPKCIRVSVQLEASPAFLAVPVEKEQAPHCICANGRQTVSWAVTPKSLGNVNFTVSAEALESQELCGTEVPSVPEHGRKDTVIKPLLVEPEGLEKETTFNSLLCPSGGEVSEELSLKLPPNVVEESARASVSVLGDILGSAMQNTQNLLQMPYGCGEQNMVLFAPNIYVLDYLNETQQLTPEIKSKAIGYLNTGYQRQLNYKHYDGSYSTFGERYGRNQGNTWLTAFVLKTFAQARAYIFIDEAHITQALIWLSQRQKDNGCFRSSGSLLNNAIKGGVEDEVTLSAYITIALLEIPLTVTHPVVRNALFCLESAWKTAQEGDHGSHVYTKALLAYAFALAGNQDKRKEVLKSLNEEAVKKDNSVHWERPQKPKAPVGHFYEPQAPSAEVEMTSYVLLAYLTAQPAPTSEDLTSATNIVKWITKQQNAQGGFSSTQDTVVALHALSKYGAATFTRTGKAAQVTIQSSGTFSSKFQVDNNNRLLLQQVSLPELPGEYSMKVTGEGCVYLQTSLKYNILPEKEEFPFALGVQTLPQTCDEPKAHTSFQISLSVSYTGSRSASNMAIVDVKMVSGFIPLKPTVKMLERSNHVSRTEVSSNHVLIYLDKVSNQTLSLFFTVLQDVPVRDLKPAIVKVYDYYETDEFAIAEYNAPCSKDLGNADYKDDDDKGASHHHHHH
B3: Variant A2M, bait region SEQ ID NO 139 (other)
chain: SVSGKPQYMVLVPSLLHTETTEKGCVLLSYLNETVTVSASLESVRGNRSLFTDLEAENDVLHCVAFAVPKSSSNEEVMFLTVQVKGPTQEFKKRTTVMVKNEDSLVFVQTDKSIYKPGQTVKFRVVSMDENFHPLNELIPLVYIQDPKGNRIAQWQSFQLEGGLKQFSFPLSSEPFQGSYKVVVQKKSGGRTEHPFTVEEFVLPKFEVQVTVPKIITILEEEMNVSVCGLYTYGKPVPGHVTVSICRKYSDASDCHGEDSQAFCEKFSGQLNSHGCFYQQVKTKVFQLKRKEYEMKLHTEAQIQEEGTVVELTGRQSSEITRTITKLSFVKVDSHFRQGIPFFGQVRLVDGKGVPIPNKVIFIRGNEANYYSNATTDEHGLVQFSINTTNVMGTSLTVRVNYKDRSPCYGYQWVSEEHEEAHHTAYLVFSPSKSFVHLEPMSHELPCGHTQTVQAHYILNGGTLLGLKKLSFYYLIMAKGGIVRTGTHGLLVKQEDMKGHFSISIPVKSDIAPVARLLIYAVLPTGDVIGDSAKYDVENCLANKVDLSFSPSQSLPASHAHLRVTAAPQSVCALRAVDQSVLLMKPDAELSASSVYNLLPEKDLTGFPGPLNDQDDEDCINRHNVYINGITYTPVSSTNEKDMYSFLEDMGLKAFTNSKIRKPKMCPQLEQYEMHGPSEDLVVQIEGEGEGEGIPENFFGVEAIPMSIPTEPHTKLRKYFPETWIWDLVVVNSAGVAEVGVTVPDTITEWKAGAFCLSEDAGLGISSTASLRAFQPFFVELTMPYSVIRGEAFTLKATVLNYLPKCIRVSVQLEASPAFLAVPVEKEQAPHCICANGRQTVSWAVTPKSLGNVNFTVSAEALESQELCGTEVPSVPEHGRKDTVIKPLLVEPEGLEKETTFNSLLCPSGGEVSEELSLKLPPNVVEESARASVSVLGDILGSAMQNTQNLLQMPYGCGEQNMVLFAPNIYVLDYLNETQQLTPEIKSKAIGYLNTGYQRQLNYKHYDGSYSTFGERYGRNQGNTWLTAFVLKTFAQARAYIFIDEAHITQALIWLSQRQKDNGCFRSSGSLLNNAIKGGVEDEVTLSAYITIALLEIPLTVTHPVVRNALFCLESAWKTAQEGDHGSHVYTKALLAYAFALAGNQDKRKEVLKSLNEEAVKKDNSVHWERPQKPKAPVGHFYEPQAPSAEVEMTSYVLLAYLTAQPAPTSEDLTSATNIVKWITKQQNAQGGFSSTQDTVVALHALSKYGAATFTRTGKAAQVTIQSSGTFSSKFQVDNNNRLLLQQVSLPELPGEYSMKVTGEGCVYLQTSLKYNILPEKEEFPFALGVQTLPQTCDEPKAHTSFQISLSVSYTGSRSASNMAIVDVKMVSGFIPLKPTVKMLERSNHVSRTEVSSNHVLIYLDKVSNQTLSLFFTVLQDVPVRDLKPAIVKVYDYYETDEFAIAEYNAPCSKDLGNADYKDDDDKGASHHHHHH

Tests used:
Experiment in all cases: cell-based or functional assay
MMP1 = target: T1, MMP1 (human, UniProt P03956 100-469, limits assumed)
T1 sequence (looked up): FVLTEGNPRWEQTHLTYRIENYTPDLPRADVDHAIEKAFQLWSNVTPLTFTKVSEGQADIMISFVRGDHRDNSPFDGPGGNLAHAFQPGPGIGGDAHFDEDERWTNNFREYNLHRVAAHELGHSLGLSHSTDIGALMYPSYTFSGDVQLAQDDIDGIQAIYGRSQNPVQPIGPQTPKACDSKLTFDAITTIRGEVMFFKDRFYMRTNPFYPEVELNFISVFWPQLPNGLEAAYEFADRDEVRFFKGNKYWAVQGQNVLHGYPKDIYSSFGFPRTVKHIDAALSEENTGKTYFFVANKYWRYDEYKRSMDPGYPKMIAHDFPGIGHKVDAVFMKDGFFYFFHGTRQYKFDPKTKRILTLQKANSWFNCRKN

Elastase = target: Elastase
Cathepsin G = target: T2, Cathepsin G (UniProt P08311 21-244)
T2 sequence (looked up): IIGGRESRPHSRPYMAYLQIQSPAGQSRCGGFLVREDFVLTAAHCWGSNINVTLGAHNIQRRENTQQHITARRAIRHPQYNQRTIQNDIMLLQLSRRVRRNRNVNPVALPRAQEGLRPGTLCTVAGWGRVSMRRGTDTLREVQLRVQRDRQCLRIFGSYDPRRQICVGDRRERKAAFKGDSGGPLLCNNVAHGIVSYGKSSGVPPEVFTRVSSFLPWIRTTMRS

Binder | Protease Inhibition (% of WT) (MMP1) | Protease Inhibition (% of WT) (Elastase) | Protease Inhibition (% of WT) (Cathepsin G)
B1 | 350 % of WT | 200 % of WT | 300 % of WT
B2 | 200 % of WT | 250 % of WT | 100 % of WT
B3 | 400 % of WT | 200 % of WT | 200 % of WT
